For experiment [1], the target named is Human colostrum IgA (Catalog No. 16-13-090701, Athens Research and Technology) (human). The experiment in a line: single-objective ESM digital counting; 5 nM IgA flowed over anti-IgA fixed on ITO; KD=koff/kon.
Experiment [2] has the same target. Put plainly: single-objective ESM digital counting; 5 nM IgA flowed over anti-IgA fixed on ITO; first-order fit.
Experiment [3] has the same target. Put plainly: ESM digital single-molecule counting; 20 nM IgA flowed over anti-IgA fixed on cover glass; KD=koff/kon.
Experiment [4] shares this target. The experiment in a line: ESM digital single-molecule counting; 20 nM IgA flowed over anti-IgA fixed on cover glass; first-order fit.
Experiment [5] shares this target. The experiment in a line: ESM real-time size (DH) of PEG-tethered single IgA on ITO after adding anti-IgA; mean of ~60 binding events.
For experiment [6] the target is unchanged. The experiment in a line: ESM real-time charge (q) of PEG-tethered single IgA on ITO after adding anti-IgA; mean of ~60 binding events.
For experiment [7] the target is unchanged. Put plainly: ESM counting of landing events of IgA monomer and complex on BSA-coated ITO; binding in free solution; fit of monomer ratio decay.
The target is the same in experiment [8]. The experiment in a line: ESM parallel kinetics; binding in free solution in a mixture of anti-IgA, IgA and IgM, 2.5 nM each; fit of IgA monomer ratio decay.
For experiment [9] the target is unchanged. The experiment in a line: ESM end-point size histogram of IgA/BSA mixture tethered on ITO, before (12.1±1.2 nm) and after (13.6±2.1 nm) adding anti-IgA; ~420 molecules.
Experiment [10] has the same target. The experiment in a line: ESM counting of landing events on BSA-coated ITO; 5 nM anti-IgA mixed with 5 nM IgA in free solution; fraction of IgA still free in the first minute.
The target is the same in experiment [11]. Put plainly: ESM counting of landing events on BSA-coated ITO; 5 nM anti-IgA mixed with 5 nM IgA in free solution; fraction of IgA still free in the third minute.

Regarding “Goat anti-human IgA (IgG, Catalog No. STAR141, BIO-RAD) (antibody)”, the dissociation constant Kd amounted to 0.87 nM in experiment [1], 0.873 nM in experiment [3], 0.839 nM in [7] and 1.84 nM in experiment [8]. Besides, the koff in experiment [2] was 0.0002 s⁻¹; in experiment [4], 9.6e-05 s⁻¹; in experiment [7], 0.00173 s⁻¹; in experiment [8], 0.00148 s⁻¹. Moreover, the kon in experiment [2] came out at 230000 M⁻¹ s⁻¹; in experiment [4] it was 110000 M⁻¹ s⁻¹; in experiment [7] it was 2.18e+06 M⁻¹ s⁻¹; in experiment [8] it was 881000 M⁻¹ s⁻¹. Further, the average size change on antibody binding in experiment [5] was 1.7 nm. Moreover, the average charge change on antibody binding in experiment [6] came to 1.8 e. Besides, the shift of the IgA size peak after antibody binding in experiment [9] amounted to 1.5 nm. Moreover, in experiment [10], the IgA monomer ratio (first minute) is 1. Further, the IgA monomer ratio (third minute) in experiment [11] was 0.5.

A word on the Kd: it is the constant that tells how readily two partners part at equilibrium. In general, koff refers to the rate constant with which the complex falls apart. What is called kon is the second-order rate constant of association.

For the origin of these results see US20240410826A1.
